Measurements taken from patent publication US20240132589A1 (ONCORESPONSE, published 2024).

Experiments:
[1] = biological target: T1, Human LILRB2 on primary human myeloid cells (human, UniProt Q8N423 22-597); assay: flow cytometry, AF647-conjugated antibody on human M2c macrophages (10 subjects), average
T1 construct: whole, on cells; the cell type is named under assay; also called LILRB2 on monocytes, M0 and M2c macrophages, myeloid dendritic cells, neutrophils
Protocol: Anti-LILRB2 antibodies were evaluated for their ability to bind myeloid cell subsets expressing LILRB2, including monocytes, M0 macrophages, and M2c macrophages. M2c macrophages are used as a surrogate for tumor-associated macrophages, a suppressive macrophage commonly found in the tumor microenvironment. Frozen monocytes were removed from storage in vapor phase liquid nitrogen and thawed by gentle swirling in a water bath at 37° C., then resuspended in X-VIVO™ 15 media with 10% FBS. PBMC were placed in a 15 mL conical tube and centrifuged at 300×g for 5 minutes, then supernatant was removed. Cells were resuspended in Assay Medium (X-VIVO™ 15+10% FBS) at a cell density of 2.5×10⁵ cells/mL. Cells were plated into 96-well flat bottom plates at 100 μL/well (25K cells/well). M0 and M2c macrophages were generated as described in Example 10 and collected from flasks by incubation for 15 min at RT in Macrophage Detachment Solution DXF, then removed from the flask into X-VIVO™ 15 medium. Following centrifugation, the cells were resuspended in FACS Blocking Buffer D (FACS Buffer+10% FBS+0.5 mg/mL human IgG1) then incubated at 4° C. for 30 minutes. […]

[2] = biological target: T2, Human LILRB2 on transiently transfected HEK293-6E cells (human, UniProt Q8N423 22-597); assay: flow cytometry, transiently transfected HEK293-6E cells
T2 construct: whole, on cells; also called hLILRB2
Protocol: (§1) To determine that the anti-LILRB2 antibodies specifically bind to LILRB2 and not other LILRB and LILRA family members, a cross-reactivity assay was performed. Cross-reactivity of the LILRB2 antibodies to other LILRB proteins was assessed by antibody binding to transiently transfected HEK293-6E cells, measured by flow cytometry. Binding was evaluated to HEK293-6E cells transiently transfected with human LILRB-1, -2, -3, -4, and 5 plasmids (Origene, Nos. RC219949, RC217935, RC211228, RC220932, RC206516) or to cells transiently transfected with human LILRA-1, -2, -4, -5, and -6 plasmids (Origene, Nos. RC210808, RC205626, RC220452, RC212310 RC212965). […] Murine primary antibodies to LILRA and LILRB targets and corresponding isotype controls were used to confirm specific binding of all targets tested (R&D Systems) while an AF647 F(ab′)₂ fragment goat anti-mouse antibody (Jackson ImmunoResearch, No. 115-606-062) was used for the detection of bound positive control antibodies. No binding of B2A-IgG4 or B2A-IgG1 to LILRB-1, -3, -4, or -5 was observed, and no binding of either antibody to LILRA-1, -2, -4, -5, or -6 was observed, confirming specificity of these antibodies.

[3] = biological target: T3, Human LILRB5 on transiently transfected HEK293-6E cells (human, UniProt O75023 24-590); assay: as above
T3 construct: whole, on cells; also called hLILRB5
Protocol: as §1

[4] = biological target: T4, Human LILRA1 on transiently transfected HEK293-6E cells (human, UniProt O75019 17-489); assay: as above
T4 construct: whole, on cells; also called hLILRA1
Protocol: as §1

[5] = biological target: T5, Human LILRA6 on transiently transfected HEK293-6E cells (human, UniProt Q6PI73 24-481); assay: as above
T5 construct: whole, on cells; also called hLILRA6
Protocol: as §1

[6] = biological target: T6, Human LILRB4 on transiently transfected HEK293-6E cells (human, UniProt Q8NHJ6 22-448); assay: as above
T6 construct: whole, on cells; also called hLILRB4
Protocol: as §1

[7] = biological target: T7, Human LILRB3 on transiently transfected HEK293-6E cells (human, UniProt O75022 24-631); assay: as above
T7 construct: whole, on cells; also called hLILRB3
Protocol: as §1

[8] = biological target: T8, Human LILRA2 on transiently transfected HEK293-6E cells (human, UniProt Q8N149 24-483); assay: as above
T8 construct: whole, on cells; also called hLILRA2
Protocol: as §1

[9] = biological target: T9, Human LILRA4 on transiently transfected HEK293-6E cells (human, UniProt P59901 24-499); assay: as above
T9 construct: whole, on cells; also called hLILRA4
Protocol: as §1

[10] = biological target: T10, Human LILRA5 on transiently transfected HEK293-6E cells (human, UniProt A6NI73 42-299); assay: as above
T10 construct: whole, on cells; also called hLILRA5
Protocol: as §1

T8 sequence (Q8N149 24-483): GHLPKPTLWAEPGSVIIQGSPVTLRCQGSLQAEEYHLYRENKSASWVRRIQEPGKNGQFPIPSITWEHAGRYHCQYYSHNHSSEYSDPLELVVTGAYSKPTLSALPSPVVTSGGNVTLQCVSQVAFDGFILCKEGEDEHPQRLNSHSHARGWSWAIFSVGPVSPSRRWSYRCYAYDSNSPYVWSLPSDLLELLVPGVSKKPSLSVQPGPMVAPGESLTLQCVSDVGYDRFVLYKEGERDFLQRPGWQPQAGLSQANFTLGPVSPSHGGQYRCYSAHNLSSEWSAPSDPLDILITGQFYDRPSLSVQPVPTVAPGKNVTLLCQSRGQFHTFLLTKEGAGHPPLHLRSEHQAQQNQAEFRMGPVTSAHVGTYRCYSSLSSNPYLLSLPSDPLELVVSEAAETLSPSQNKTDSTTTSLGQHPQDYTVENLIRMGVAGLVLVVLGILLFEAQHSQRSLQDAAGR
T4 sequence (O75019 17-489): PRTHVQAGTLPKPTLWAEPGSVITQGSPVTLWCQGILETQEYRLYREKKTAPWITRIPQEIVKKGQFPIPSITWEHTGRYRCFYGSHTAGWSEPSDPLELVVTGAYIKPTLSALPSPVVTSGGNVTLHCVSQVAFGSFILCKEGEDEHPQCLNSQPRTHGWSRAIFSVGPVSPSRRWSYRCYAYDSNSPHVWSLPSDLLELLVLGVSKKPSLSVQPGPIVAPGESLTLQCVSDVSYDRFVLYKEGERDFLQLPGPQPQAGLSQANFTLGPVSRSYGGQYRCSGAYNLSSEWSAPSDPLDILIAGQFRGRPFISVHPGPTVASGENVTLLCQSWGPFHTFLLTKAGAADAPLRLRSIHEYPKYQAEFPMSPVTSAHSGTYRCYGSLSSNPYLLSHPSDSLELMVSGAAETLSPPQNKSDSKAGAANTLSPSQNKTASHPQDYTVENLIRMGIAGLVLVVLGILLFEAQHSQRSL
T3 sequence (O75023 24-590): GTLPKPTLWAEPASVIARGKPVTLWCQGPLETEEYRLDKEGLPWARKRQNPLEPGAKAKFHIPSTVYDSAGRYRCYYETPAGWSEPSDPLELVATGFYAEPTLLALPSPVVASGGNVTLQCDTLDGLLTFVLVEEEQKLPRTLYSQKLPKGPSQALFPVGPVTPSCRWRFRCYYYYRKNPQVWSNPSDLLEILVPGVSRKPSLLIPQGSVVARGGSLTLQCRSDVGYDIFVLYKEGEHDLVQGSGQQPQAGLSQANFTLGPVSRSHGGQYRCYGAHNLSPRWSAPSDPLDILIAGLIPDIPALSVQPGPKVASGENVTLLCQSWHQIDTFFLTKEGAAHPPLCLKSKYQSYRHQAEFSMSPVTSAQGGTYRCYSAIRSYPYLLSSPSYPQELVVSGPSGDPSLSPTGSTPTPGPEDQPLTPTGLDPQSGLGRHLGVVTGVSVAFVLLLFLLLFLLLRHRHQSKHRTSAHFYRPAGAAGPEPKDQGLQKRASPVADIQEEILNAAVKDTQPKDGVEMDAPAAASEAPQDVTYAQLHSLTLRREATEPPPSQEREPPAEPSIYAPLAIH
T9 sequence (P59901 24-499): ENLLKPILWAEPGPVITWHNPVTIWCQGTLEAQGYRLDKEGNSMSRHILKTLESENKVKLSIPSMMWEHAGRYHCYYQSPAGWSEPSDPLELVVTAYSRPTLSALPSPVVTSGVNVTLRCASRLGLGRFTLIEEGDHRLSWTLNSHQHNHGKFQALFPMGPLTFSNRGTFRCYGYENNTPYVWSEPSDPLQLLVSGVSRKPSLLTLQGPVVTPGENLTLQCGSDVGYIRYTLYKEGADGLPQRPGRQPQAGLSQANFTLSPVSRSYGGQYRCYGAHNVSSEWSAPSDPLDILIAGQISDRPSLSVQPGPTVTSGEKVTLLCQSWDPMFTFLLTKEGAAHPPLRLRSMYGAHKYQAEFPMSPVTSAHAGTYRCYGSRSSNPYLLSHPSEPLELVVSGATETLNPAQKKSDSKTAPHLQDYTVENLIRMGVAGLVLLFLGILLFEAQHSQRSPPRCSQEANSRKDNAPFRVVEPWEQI
T5 sequence (Q6PI73 24-481): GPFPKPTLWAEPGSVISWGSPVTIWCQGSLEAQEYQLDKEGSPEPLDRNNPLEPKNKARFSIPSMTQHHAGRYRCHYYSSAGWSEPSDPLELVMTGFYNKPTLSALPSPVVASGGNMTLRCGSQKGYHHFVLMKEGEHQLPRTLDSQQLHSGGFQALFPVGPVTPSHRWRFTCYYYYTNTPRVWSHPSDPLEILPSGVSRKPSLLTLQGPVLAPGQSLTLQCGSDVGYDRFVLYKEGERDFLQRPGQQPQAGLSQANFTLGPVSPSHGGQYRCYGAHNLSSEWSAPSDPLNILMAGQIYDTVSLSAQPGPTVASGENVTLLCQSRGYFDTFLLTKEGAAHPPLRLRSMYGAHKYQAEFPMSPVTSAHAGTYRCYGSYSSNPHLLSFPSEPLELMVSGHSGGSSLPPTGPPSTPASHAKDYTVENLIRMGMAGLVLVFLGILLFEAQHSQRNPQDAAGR
T10 sequence (A6NI73 42-299): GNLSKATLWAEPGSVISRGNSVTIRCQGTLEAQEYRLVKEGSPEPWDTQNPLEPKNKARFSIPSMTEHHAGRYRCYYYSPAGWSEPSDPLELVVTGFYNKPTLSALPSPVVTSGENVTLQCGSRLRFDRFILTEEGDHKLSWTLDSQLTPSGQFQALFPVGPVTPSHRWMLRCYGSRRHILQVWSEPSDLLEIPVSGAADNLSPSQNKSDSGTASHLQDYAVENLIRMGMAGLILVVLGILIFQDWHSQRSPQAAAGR
T2 sequence (Q8N423 22-597): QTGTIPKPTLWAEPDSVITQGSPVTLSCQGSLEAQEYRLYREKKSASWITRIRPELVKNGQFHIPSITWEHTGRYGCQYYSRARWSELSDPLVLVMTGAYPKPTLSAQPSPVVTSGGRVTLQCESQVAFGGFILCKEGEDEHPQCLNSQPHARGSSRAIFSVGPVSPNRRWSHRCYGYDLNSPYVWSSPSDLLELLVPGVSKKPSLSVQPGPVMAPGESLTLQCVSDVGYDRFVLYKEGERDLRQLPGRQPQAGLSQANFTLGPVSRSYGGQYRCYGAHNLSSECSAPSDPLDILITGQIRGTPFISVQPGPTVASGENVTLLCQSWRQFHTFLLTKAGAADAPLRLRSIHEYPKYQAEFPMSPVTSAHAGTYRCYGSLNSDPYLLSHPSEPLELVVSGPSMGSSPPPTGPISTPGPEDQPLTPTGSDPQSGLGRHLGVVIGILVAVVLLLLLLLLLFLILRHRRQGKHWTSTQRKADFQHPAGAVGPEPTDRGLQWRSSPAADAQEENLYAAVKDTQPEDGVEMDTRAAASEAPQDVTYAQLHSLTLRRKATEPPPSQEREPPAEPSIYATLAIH
T1 sequence (Q8N423 22-597): as above

B1: B2H1-55 (antibody, V domains shown)
VH: EVQLLESGGGLVQPGTSLTLSCAASGFSLSTYAMSWVRQAPGKGLEWIGWIYNDGSTYYAAWAKGRFTISKDTSKTTLYLQITSLRAEDTATYFCAREGDYIGYFNIWGQGTLVTVSS
VL: DVVMTQTPSSVSAALGGTVTIKCQASQSIGSNLAWYQLKPGQRPKLLIYAAATLASGGSSRFKGSGSGTDFTLTISSLEPADAATYYCQSYVSGSSDVAFGGGTEVVVK
notes: Humanized variant, human IgG1 / kappa; also called humanized variant B2H1-55; humanized LILRB2 antibody B2H1-55
Work on B1 yielded an EC50 [1] of 0.0243 mg/L.

B2: B2A-IgG1 (antibody)
heavy: not shown
light: DVVMTQTPSSVSAALGGTVTIKCQASQSIGSNLAWYQLKPGQRPKLLIYAAATLASGGSSRFKGSGSGTDFTLTISDLECADAATYYCQSYVSGSSDVAFGGGTEVVVKRTVAAPSVFIFPPSDEQLKSGTASVVCLLNNFYPREAKVQWKVDNALQSGNSQESVTEQDSKDSTYSLSSTLTLSKADYEKHKVYACEVTHQGLSSPVTKSFNRGEC
notes: Rabbit variable regions on human IgG1 / kappa constant regions; AF647-conjugated in some flow assays; also called B2A-IgG1 chimera; anti-LILRB2 B2A-IgG1
B2 gave an MFI [2] of 11300 MFI, an MFI [3] of 147 MFI and an MFI [4] of 898 MFI. It also gave an MFI [5] of 223 MFI, an MFI [6] of 40 MFI and an MFI [7] of 163 MFI. It also gave an MFI [8] of 38 MFI, an MFI [9] of 116 MFI and an MFI [10] of 127 MFI.

B3: B2A-IgG4 (antibody)
heavy: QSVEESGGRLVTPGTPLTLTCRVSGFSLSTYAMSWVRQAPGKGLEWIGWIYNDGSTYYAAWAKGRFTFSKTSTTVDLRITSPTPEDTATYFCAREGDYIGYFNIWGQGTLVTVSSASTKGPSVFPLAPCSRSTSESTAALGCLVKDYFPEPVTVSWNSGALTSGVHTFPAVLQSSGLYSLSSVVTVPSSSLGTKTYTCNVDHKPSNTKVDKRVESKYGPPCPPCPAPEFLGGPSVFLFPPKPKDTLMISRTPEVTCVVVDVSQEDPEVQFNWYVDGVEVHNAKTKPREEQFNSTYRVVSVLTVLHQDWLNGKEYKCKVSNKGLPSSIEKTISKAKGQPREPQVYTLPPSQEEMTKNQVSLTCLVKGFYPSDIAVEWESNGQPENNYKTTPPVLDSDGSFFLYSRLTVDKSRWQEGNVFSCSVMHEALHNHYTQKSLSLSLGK
light: DVVMTQTPSSVSAALGGTVTIKCQASQSIGSNLAWYQLKPGQRPKLLIYAAATLASGGSSRFKGSGSGTDFTLTISDLECADAATYYCQSYVSGSSDVAFGGGTEVVVKRTVAAPSVFIFPPSDEQLKSGTASVVCLLNNFYPREAKVQWKVDNALQSGNSQESVTEQDSKDSTYSLSSTLTLSKADYEKHKVYACEVTHQGLSSPVTKSFNRGEC
notes: Rabbit variable regions on human IgG4 / kappa constant regions; also called B2A-IgG4 chimera; Parent B2A-IgG4
For B3, the MFI [2] was 1160 MFI, the MFI [3] was 21 MFI and the MFI [4] was 73 MFI. For the same binder, the MFI [5] was 22 MFI, the MFI [6] was 20 MFI and the MFI [7] was 22 MFI. The MFI [8] was 31 MFI, the MFI [9] was 30 MFI and the MFI [10] was 21 MFI.
